The text below walks through data of paper doi:10.1101/2025.06.10.658980, “Structures reveal how the Cas1-2/3 integrase captures, delivers, and integrates foreign DNA into CRISPR loci” (bioRxiv, 2025).

The stoichiometry N is a count of units in the complex or per binding partner.

B2: Cas1 (type I-F, Pseudomonas aeruginosa PA14), StrepII-tagged (enzyme)
chain: MDDISPSELKTILHSKRANLYYLQHCRVLVNGGRVEYVTDEGRHSHYWNIPIANTTSLLLGTGTSITQAAMRELARAGVLVGFCGGGGTPLFSANEVDVEVSWLTPQSEYRPTEYLQRWVGFWFDEEKRLVAARHFQRARLERIRHSWLEDRVLRDAGFAVDATALAVAVEDSARALEQAPNHEHLLTEEARLSKRLFKLAAQATRYGEFVRAKRGSGGDPANRFLDHGNYLAYGLAATATWVLGIPHGLAVLHGKTRRGGLVFDVADLIKDSLILPQAFLSAMRGDEEQDFRQACLDNLSRAQALDFMIDTLKDVAQRSTVSA
notes: Four Cas1 subunits (two homodimers) stand in the Cas1-2/3 heterohexamer; also called StrepII-tagged Cas1; Cas1a; source: E. coli BL21(DE3), co-expressed with Cas2/3 from a single plasmid; in lysate, and purified (StrepTrap HP, Superdex 200); not shown: StrepII, N-terminal, kept

Data set [1] deals with the molecule itself. In words: cryo-EM structure; Cas1-2/3 capture complex without nucleic acid, 12.8 uM, 3.3 Å.
The target of data set [2] is B2. In words: SEC; affinity-purified Cas1-2/3 on Superdex 200 in 10 mM HEPES pH 7.5, 500 mM potassium glutamate, 10% glycerol; single peak, estimated ~380 kDa. The following applies: both partners purified.

B1: Cas2/3 fusion protein (type I-F, Pseudomonas aeruginosa PA14), untagged (enzyme)
chain: MNILLVSQCEKRALSETRRILDQFAERRGERTWQTPITQAGLDTLRRLLKKSARRNTAVACHWIRGRDHSELLWIVGDASRFNAQGAVPTNRTCRDILRKEDENDWHSAEDIRLLTVMAALFHDIGKASQAFQAKLRNRGKPMADAYRHEWVSLRLFEAFVGPGSSDEDWLRRLADKRETGDAWLSQLARDDRQSAPPGPFQKSRLPPLAQAVGWLIVSHHRLPNGDHRGSASLARLPAPIQSQWCGARDADAKEKAACWQFPHGLPFASAHWRARTALCAQSMLERPGLLARGPALLHDSYVMHVSRLILMLADHHYSSLPADSRLGDPNFPLHANTDRDSGKLKQRLDEHLLGVALHSRKLAGTLPRLERQLPRLARHKGFTRRVEQPRFRWQDKAYDCAMACREQAMEHGFFGLNLASTGCGKTLANGRILYALADPQRGARFSIALGLRSLTLQTGQAYRERLGLGDDDLAILVGGSAARELFEKQQERLERSGSESAQELLAENSHVHFAGTLEDGPLREWLGRNSAGNRLLQAPILACTIDHLMPASESLRGGHQIAPLLRLMTSDLVLDEVDDFDIDDLPALSRLVHWAGLFGSRVLLSSATLPPALVQGLFEAYRSGREIFQRHRGAPGRATEIRCAWFDEFSSQSSAHGAVTSFSEAHATFVAQRLAKLEQLPPRRQAQLCTVHAAGEARPALCRELAGQMNTWMADLHRCHHTEHQGRRISFGLLRLANIEPLIELAQAILAQGAPEGLHVHLCVYHSRHPLLVRSAIERQLDELLKRSDDDAAALFARPTLAKALQASTERDHLFVVLASPVAEVGRDHDYDWAIVEPSSMRSIIQLAGRIRRHRSGFSGEANLYLLSRNIRSLEGQNPAFQRPGFETPDFPLDSHDLHDLLDPALLARIDASPRIVEPFPLFPRSRLVDLEHRRLRALMLADDPPSSLLGVPLWWQTPASLSGALQTSQPFRAGAKERCYALLPDEDDEERLHFSRYEEGTWSNQDNLLRNLDLTYGPRIQTWGTVNYREELVAMAGREDLDLRQCAMRYGEVRLRENTQGWSYHPYLGFKKYN
notes: Two Cas2/3 subunits stand in the Cas1-2/3 heterohexamer, joined through the Cas2 homodimer; also called Cas3; Cas3a; source: E. coli BL21(DE3), co-expressed with StrepII-Cas1 from a single plasmid; in lysate, and purified with Cas1 (StrepTrap HP, Superdex 200)
In the case of B1, the “stoichiometry N” value in data set [1] is 2; in data set [2] it was 2 Cas1 per Cas2/3 (4:2). With B2, in data set [1], the “stoichiometry N” value amounted to 2.
